Results: patent publication US20250346673A1 (DUALITY BIOLOGICS SUZHOU, published 2025)

Legend:
human BDCA2 [1] = target: T1, human BDCA2 (human, UniProt Q8WTT0 1-213); test: cell-based or functional assay
T1 sequence (looked up): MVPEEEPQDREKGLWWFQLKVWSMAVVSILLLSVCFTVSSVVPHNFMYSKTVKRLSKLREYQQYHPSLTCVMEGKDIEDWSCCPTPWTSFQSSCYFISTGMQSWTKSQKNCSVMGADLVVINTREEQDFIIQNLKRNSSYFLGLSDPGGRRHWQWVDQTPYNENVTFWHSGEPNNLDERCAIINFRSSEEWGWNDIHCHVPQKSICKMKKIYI

human BDCA2 [2] = target: T1, human BDCA2; test: FACS, CHOK1-humanBDCA2 cells
human BDCA2 [3] = target: T1, human BDCA2; test: FACS, CHOK1-humanBDCA2 cells; remark: listed apart in the source
Description: The cells were recovered and resuspended to 2×10⁶/mL with FACS buffer (PBS+2% FBS). The resuspended cells were added to 3799 cell plates at 100 μL/well, and the supernatant was discarded after centrifugation at 300 g. […] The cells were incubated at 4° C. for 1 h. The incubated cells were centrifuged at […] for 5 min and washed twice with FACS buffer. 100 μL Goat anti-Human IgG (H+L) Cross-Adsorbed Secondary Antibody, Alexa Fluor 488 (Sigma, A11013; 1:1000) secondary antibody was added, washed twice with FACS buffer after incubation at 4° C. for 1 h. The cells were resuspended with PBS, then the fluorescence signal of antibodies bound to cell surface was analyzed with FACS (BD FACS CantoTM II) instrument and curves were fitted with GraphPad Prism6 to calculate EC₅₀ values for antibodies binding to BDCA2 antigen.

Recombinant Human BDCA2 = target: T2, Recombinant Human BDCA2 (human, UniProt Q8WTT0 45-213, limits assumed); test: SPR (BIAcore), antibody captured by anti-human IgG (Fc), hBDCA2 as analyte, 1:1 model
T2 construct: also called hBDCA2 (SPR analyte); human BDCA2 antigen
T2 sequence (looked up): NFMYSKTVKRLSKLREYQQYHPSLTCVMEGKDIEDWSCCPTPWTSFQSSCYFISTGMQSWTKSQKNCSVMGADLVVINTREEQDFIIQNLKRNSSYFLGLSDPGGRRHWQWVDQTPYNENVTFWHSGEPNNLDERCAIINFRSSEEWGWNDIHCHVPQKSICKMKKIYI

human BDCA2 [4] = target: T1, human BDCA2; test: FACS on CHOK1-hBDCA2 cells; EC50 table under the plot, unit from the x axis (nM)
Description: (§1) The cells were recovered and resuspended to 2×10⁶/mL with FACS buffer (PBS+2% FBS). The cells were added to 3799 cell plates (Corning) at 100 μL/well, and the supernatant was discarded after centrifugation at 300 g. The antibodies were serially diluted with FACS buffer (Id.), the diluted antibodies were added to centrifuged cells and the cells were resuspended. The cells were incubated at 4° C. for 1 h. The incubated cells were then centrifuged at […] for 5 min and washed twice with FACS buffer. 100 μL Donkey anti-Mouse IgG (H+L) Highly Cross-Adsorbed Secondary Antibody-Alexa Fluor 488 (Invitrogen, A21202; 1:1000) secondary antibody was added to the cells, which were washed twice with FACS buffer after incubation at 4° C. for 1 h, resuspended with PBS, analyzed with FACS (BD FACS CantoTM II) instrument. The curve was fitted with GraphPad Prism6, and EC₅₀ values were calculated.

human BDCA2 [5] = target: T1, human BDCA2; test: as above; remark: listed apart in the source
human BDCA2 [6] = target: T1, human BDCA2; test: as above; remark: listed apart in the source
Description: (§2) The cells were recovered and resuspended to 2×10⁶/mL with FACS buffer (PBS+2% FBS). The cells were added to 3799 cell plates (Corning) at 100 μL/well, and the supernatant was discarded after centrifugation at 300 g. The antibodies were serially diluted with FACS buffer (Id.), the diluted antibodies were added to centrifuged cells and the cells were resuspended. The cells were incubated at 4° C. for 1 h. The incubated cells were centrifuged at 300 g for 5 min and washed twice with FACS buffer. 100 μL […] anti-Human IgG (H+L) Cross-Adsorbed Secondary Antibody-Alexa Fluor 488 (Sigma, A11013; 1:1000) secondary antibody was added, washed twice with FACS buffer after incubation at 4° C. for 1 h, resuspended with PBS, analyzed with FACS (BD FACS CantoTM II) instrument and curve fitted with GraphPad Prism6, and EC₅₀ values were calculated.

human BDCA2 [7] = target: T1, human BDCA2; test: as above; remark: listed apart in the source
Description: as §2

human BDCA2 [8] = target: T1, human BDCA2; test: FACS on CHOK1-hBDCA2 cells; EC50 table under the plot, unit from the x axis (nM) [continued) c.]
Description: as §1

human BDCA2 [9] = target: T1, human BDCA2; test: FACS on CHOK1-hBDCA2 cells; EC50 table under the plot, unit from the x axis (nM) [continued) d.]
Summary of the method: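 Antibodies serially diluted in PBS + 2% FBS and bound to 2×10⁶/mL transfected cells for 1 h at 4 °C. After washing, Alexa Fluor 488 anti-mouse IgG (1:1000) was added for 1 h at 4 °C and read by flow cytometry. EC50 values came from fitted binding curves.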

human BDCA2 [10] = target: T1, human BDCA2; test: FACS on CHOK1-hBDCA2 cells; EC50 table under the plot, unit from the x axis (nM) [continued) e.]
Description: as §1

human BDCA2 [11] = target: T1, human BDCA2; test: FACS on CHOK1-hBDCA2 cells; EC50 table beside the plot, unit from the x axis (nM) [continued) c.]
Description: as §2

cynomolgus BDCA2 = target: T3, cynomolgus BDCA2 (cynomolgus monkey, UniProt A0A2K5UWP4 1-212); test: FACS on 293F-cynoBDCA2 cells; EC50 table under the plot, unit from the x axis (nM) [continued) c.]
T3 construct: whole, on cells; also called Cyno BDCA2; cynoBDCA2
T3 sequence: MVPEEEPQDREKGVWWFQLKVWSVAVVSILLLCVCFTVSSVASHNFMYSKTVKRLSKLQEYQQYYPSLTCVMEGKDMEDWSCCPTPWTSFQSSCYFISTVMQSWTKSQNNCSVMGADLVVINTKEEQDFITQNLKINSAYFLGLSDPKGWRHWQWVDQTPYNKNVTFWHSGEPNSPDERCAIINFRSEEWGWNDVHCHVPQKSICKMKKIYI
Description: as §1

B1: BIIB059 (antibody, V domains shown)
VH: DVQLVESGGGLVKPGGSLRLSCAASGFTFSTYTMSWVRQAPGKGLEWVATISPGDSFGYYYPDSVQGRFTISRDNAKNSLYLQMNSLRAEDTAVYYCTRDIYYNYGAWFAYWGQGTLVTVSS
VL: DIQLTQSPSSLSASVGDRVTITCKASQSVDYDGDSYMNWYQQKPGKAPKLLIYAASTLESGVPSRFSGSGSGTDFTLTISSLQPEDFATYYCQQANEDPRTFGQGTKVEIKR
Question: B1 was tested. Which “EC50 (nM), inhibition of CpG-A stimulated IFNα release from human PBMC” value (human BDCA2 [1]) did it give?
Answer: 0.04 nM

Question: And the EC50 (human BDCA2 [2])?
Answer: 1.3 nM

Question: And the EC50 (human BDCA2 [3])?
Answer: 3.1 nM

Question: And the Kd (Recombinant Human BDCA2)?
Answer: 1.07 nM

Question: What about the EC50 (human BDCA2 [4]) of the same binder?
Answer: 2.17 nM

Question: What about the EC50 (human BDCA2 [5]) of the same binder?
Answer: 2.17 nM

Question: What about the EC50 (human BDCA2 [6]) of the same binder?
Answer: 1.91 nM

Question: What about the EC50 (human BDCA2 [7]) of the same binder?
Answer: 3.45 nM

Question: And the EC50 (human BDCA2 [8])?
Answer: 2.48 nM

Question: And the EC50 (human BDCA2 [9])?
Answer: 1.09 nM

Question: What about the EC50 (human BDCA2 [10]) of the same binder?
Answer: 1.91 nM

Question: What about the EC50 (human BDCA2 [11]) of the same binder?
Answer: 2 nM

B2: mAb016 (antibody, V domains shown)
VH: QVQLKQSGPGLVQPSQSLSITCTVSGFSLTSYGVHWVRQSPGKGLEWLGVIWSGESTDYDAAFISRLSISKDNSKSQVFFRMNSLQADDSAIYYCARRRSHYYGYVMDYWGQGTSVTVSS
VL: DIVLTQSPASLAVSLGQRATISCKASQSVDYDGVGYLNWYQHKPGQPPKLLIYAASNLESGIPARFSGSGSGTDFTLNIHPVEEEDAATYYCQQSNEDPPTFGSGTKLEIK
notes: Mouse hybridoma antibody
Question: Which results are given for B2?
Answer: EC50 (human BDCA2 [8]): 1.33 nM; EC50 (cynomolgus BDCA2): 1.78 nM
